Assay results reported in PMC6572100, “Structure of the Prx6-subfamily 1-Cys peroxiredoxin from Sulfolobus islandicus” (Acta Crystallographica. Section F, Structural Biology …, 2019).

Columns and labels:
[1] = target: the molecule itself; assay: SEC; Superdex 200, about 2 mg protein, 50 mM Na2HPO4 pH 7.4, 150 mM NaCl; untreated protein; molecular-weight standard curve
[2] = target: the molecule itself; assay: crystal structure; hanging-drop vapor diffusion, 7.5 mg/ml protein in 10 mM Tris-HCl pH 7.5; reservoir 10 mM Tris-HCl pH 7.5, 15% PEG 1500, 0.1 M MgCl2, 283 K; 2.75 Å, space group P212121, ten monomers in the asymmetric unit

B1: Sulfolobus islandicus 1-Cys peroxiredoxin (1-Cys SiPrx) (enzyme, Sulfolobus islandicus REY15a)
chain: MVSEGRIPLIGEKFPEMEVITTHGKIKLPDDYKGRWFVLFSHPGDFTPVCTTEFYSFSKKYEEFKKLNTELIGLSVDSNISHIEWVMWIEKNLKVEVPFPIIADPMGNVAKRLGMIHAESSTATVRAVFIIDDKGTVRLILYYPMEIGRNIDEILRAIRALQLVDKAGVVTPANWPNNELIGDKVINPAPRTIKDAKMRLGQPFDWWFTYKEVKTT
notes: The residue numbers printed in the text (Cys49, His41, Lys24) are one lower than the positions in the printed construct (C50, H42, K25); surmise: the V at position 2 comes from the NcoI cloning site; Decamer (five homodimers) in the crystal and in solution; also called S. islandicus Bcp2; SiRe_0346; source: E. coli Rosetta, purified (HisTrap FF, dialysis); not shown: His6, C-terminal, kept; …
In the case of B1, the “stoichiometry N” value [1] is reported as about 20 subunits and the “stoichiometry N” value [2] is reported as 10 subunits.
